Source: paper PMC4615246 (Nucleus, 2015)

T1: LacI-CFP-Nup133 (human, UniProt Q8WUM0 1-1156)
T1 sequence: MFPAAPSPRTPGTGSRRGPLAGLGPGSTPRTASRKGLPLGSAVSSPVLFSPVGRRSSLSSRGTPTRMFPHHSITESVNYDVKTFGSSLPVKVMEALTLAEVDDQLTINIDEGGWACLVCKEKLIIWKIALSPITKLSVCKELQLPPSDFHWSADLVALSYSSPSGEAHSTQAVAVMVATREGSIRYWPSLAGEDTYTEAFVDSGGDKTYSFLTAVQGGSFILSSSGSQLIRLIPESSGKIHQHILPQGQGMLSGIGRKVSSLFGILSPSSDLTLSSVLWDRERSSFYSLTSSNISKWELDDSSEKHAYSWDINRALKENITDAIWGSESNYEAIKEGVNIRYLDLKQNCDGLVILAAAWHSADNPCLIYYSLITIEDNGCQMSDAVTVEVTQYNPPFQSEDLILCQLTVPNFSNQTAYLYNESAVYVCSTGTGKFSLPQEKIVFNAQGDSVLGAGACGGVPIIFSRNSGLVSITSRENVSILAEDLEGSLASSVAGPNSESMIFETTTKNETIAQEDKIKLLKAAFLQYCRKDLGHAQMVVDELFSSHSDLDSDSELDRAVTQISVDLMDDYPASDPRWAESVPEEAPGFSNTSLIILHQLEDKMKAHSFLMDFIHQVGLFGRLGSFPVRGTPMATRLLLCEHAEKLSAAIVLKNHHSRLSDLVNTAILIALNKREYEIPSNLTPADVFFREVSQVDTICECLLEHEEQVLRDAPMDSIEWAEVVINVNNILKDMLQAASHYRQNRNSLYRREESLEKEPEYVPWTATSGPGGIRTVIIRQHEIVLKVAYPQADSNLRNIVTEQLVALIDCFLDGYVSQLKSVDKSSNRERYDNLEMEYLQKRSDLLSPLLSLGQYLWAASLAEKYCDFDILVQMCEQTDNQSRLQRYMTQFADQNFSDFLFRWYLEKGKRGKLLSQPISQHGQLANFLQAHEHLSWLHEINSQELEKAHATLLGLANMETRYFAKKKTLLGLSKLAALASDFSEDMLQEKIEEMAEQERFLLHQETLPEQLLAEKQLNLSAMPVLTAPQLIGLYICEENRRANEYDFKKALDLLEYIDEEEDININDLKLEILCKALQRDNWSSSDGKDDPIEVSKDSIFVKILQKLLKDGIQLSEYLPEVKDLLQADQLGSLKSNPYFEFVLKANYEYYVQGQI

T2: LacI-CFP-Nup153 (human, UniProt P49790 1-1475)
T2 sequence: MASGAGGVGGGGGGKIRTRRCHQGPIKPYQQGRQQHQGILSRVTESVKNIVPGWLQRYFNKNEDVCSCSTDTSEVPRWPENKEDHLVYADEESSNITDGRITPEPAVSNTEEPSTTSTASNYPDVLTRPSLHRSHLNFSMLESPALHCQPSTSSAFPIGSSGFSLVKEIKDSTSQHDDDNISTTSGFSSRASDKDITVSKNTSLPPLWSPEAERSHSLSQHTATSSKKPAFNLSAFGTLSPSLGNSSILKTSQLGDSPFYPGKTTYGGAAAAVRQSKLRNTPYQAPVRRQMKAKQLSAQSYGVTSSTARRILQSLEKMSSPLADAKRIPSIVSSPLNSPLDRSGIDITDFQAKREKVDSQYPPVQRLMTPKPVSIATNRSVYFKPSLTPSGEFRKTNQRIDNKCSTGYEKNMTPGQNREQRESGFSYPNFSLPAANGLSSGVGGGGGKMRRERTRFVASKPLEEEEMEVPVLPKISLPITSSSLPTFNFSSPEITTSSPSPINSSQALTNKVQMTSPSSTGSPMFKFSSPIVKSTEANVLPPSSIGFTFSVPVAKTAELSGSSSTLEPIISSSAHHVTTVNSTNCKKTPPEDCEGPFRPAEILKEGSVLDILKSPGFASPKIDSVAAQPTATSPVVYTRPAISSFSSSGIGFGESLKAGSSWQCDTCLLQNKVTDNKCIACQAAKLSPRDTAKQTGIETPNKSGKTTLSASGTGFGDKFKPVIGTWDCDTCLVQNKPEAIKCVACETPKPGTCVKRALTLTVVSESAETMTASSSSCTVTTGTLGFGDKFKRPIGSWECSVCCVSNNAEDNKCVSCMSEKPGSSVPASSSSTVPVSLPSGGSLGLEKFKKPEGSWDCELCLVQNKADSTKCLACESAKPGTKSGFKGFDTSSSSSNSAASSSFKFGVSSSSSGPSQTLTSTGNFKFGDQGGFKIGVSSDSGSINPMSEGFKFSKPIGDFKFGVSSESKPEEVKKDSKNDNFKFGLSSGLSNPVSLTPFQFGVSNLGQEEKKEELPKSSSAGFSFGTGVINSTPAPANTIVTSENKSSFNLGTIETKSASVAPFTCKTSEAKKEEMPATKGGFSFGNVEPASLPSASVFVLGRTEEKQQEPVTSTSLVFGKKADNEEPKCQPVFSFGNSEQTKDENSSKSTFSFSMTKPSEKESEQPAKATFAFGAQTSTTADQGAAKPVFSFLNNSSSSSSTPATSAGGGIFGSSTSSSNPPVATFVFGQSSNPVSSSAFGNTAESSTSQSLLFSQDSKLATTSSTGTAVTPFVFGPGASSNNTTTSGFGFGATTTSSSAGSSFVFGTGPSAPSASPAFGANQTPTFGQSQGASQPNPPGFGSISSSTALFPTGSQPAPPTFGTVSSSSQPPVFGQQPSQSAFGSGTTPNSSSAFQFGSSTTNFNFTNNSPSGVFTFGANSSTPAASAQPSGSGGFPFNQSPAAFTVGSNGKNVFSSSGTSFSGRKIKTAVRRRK


Experiments:
[1] = target: T1, LacI-CFP-Nup133; test: LacI/LacO array recruitment in cells
[2] = target: T2, LacI-CFP-Nup153; test: LacI/LacO array recruitment in cells

| Binder | percent of transfected cells showing colocalization [1] [%] | percent of transfected cells showing colocalization [2] [%] |
| --- | --- | --- |
| Nup62 (endogenous) (natural protein) MSGFNFGGTGAPTGGFTFGTAKTATTTPATGFSFSTSGTGGFNFGAPFQPATSTPSTGLFSLATQTPATQTTGFTFGTATLASGGTGFSLGIGASKLNLSNTAATPAMANPSGFGLGSSNLTNAISSTVTSSQGTAPTGFVFGPSTTSVAPATTSGGFSFTGGSTAQPSGFNIGSAGNSAQPTAPATLPFTPATPAATTAGATQPAAPTPTATITSTGPSLFASIATAPTSSATTGLSLCTPVTTAGAPTAGTQGFSLKAPGAASGTSTTTSTAATATATTTSSSSTTGFALNLKPLAPAGIPSNTAAAVTAPPGPGAAAGAAASSAMTYAQLESLINKWSLELEDQERHFLQQATQVNAWDRTLIENGEKITSLHREVEKVKLDQKRLDQELDFILSQQKELEDLLSPLEELVKEQSGTIYLQHADEEREKTYKLAENIDAQLKRMAQDLKDIIEHLNTSGAPADTSDPLQQICKILNAHMDSLQWIDQNSALLQRKVEEVTKVCEGRRKEQERSFRITFD | 5 | 56 |
| Nup93 (endogenous) (natural protein) MDTEGFGELLQQAEQLAAETEGISELPHVERNLQEIQQAGERLRSRTLTRTSQETADVKASVLLGSRGLDISHISQRLESLSAATTFEPLEPVKDTDIQGFLKNEKDNALLSAIEESRKRTFGMAEEYHRESMLVEWEQVKQRILHTLLASGEDALDFTQESEPSYISDVGPPGRSSLDNIEMAYARQIYIYNEKIVNGHLQPNLVDLCASVAELDDKSISDMWTMVKQMTDVLLTPATDALKNRSSVEVRMEFVRQALAYLEQSYKNYTLVTVFGNLHQAQLGGVPGTYQLVRSFLNIKLPAPLPGLQDGEVEGHPVWALIYYCMRCGDLLAASQVVNRAQHQLGEFKTWFQEYMNSKDRRLSPATENKLRLHYRRALRNNTDPYKRAVYCIIGRCDVTDNQSEVADKTEDYLWLKLNQVCFDDDGTSSPQDRLTLSQFQKQLLEDYGESHFTVNQQPFLYFQVLFLTAQFEAAVAFLFRMERLRCHAVHVALVLFELKLLLKSSGQSAQLLSHEPGDPPCLRRLNFVRLLMLYTRKFESTDPREALQYFYFLRDEKDSQGENMFLRCVSELVIESREFDMILGKLENDGSRKPGVIDKFTSDTKPIINKVASVAENKGLFEEAAKLYDLAKNADKVLELMNKLLSPVVPQISAPQSNKERLKNMALSIAERYRAQGISANKFVDSTFYLLLDLITFFDEYHSGHIDRAFDIIERLKLVPLNQESVEERVAAFRNFSDEIRHNLSEVLLATMNILFTQFKRLKGTSPSSSSRPQRVIEDRDSQLRSQARTLITFAGMIPYRTSGDTNARLVQMEVLMN | 21 | 23 |
| Nup160 (endogenous) (natural protein) MLHLSAAPPAPPPEVTATARPCLCSVGRRGDGGKMAAAGALERSFVELSGAERERPRHFREFTVCSIGTANAVAGAVKYSESAGGFYYVESGKLFSVTRNRFIHWKTSGDTLELMEESLDINLLNNAIRLKFQNCSVLPGGVYVSETQNRVIILMLTNQTVHRLLLPHPSRMYRSELVVDSQMQSIFTDIGKVDFTDPCNYQLIPAVPGISPNSTASTAWLSSDGEALFALPCASGGIFVLKLPPYDIPGMVSVVELKQSSVMQRLLTGWMPTAIRGDQSPSDRPLSLAVHCVEHDAFIFALCQDHKLRMWSYKEQMCLMVADMLEYVPVKKDLRLTAGTGHKLRLAYSPTMGLYLGIYMHAPKRGQFCIFQLVSTESNRYSLDHISSLFTSQETLIDFALTSTDIWALWHDAENQTVVKYINFEHNVAGQWNPVFMQPLPEEEIVIRDDQDPREMYLQSLFTPGQFTNEALCKALQIFCRGTERNLDLSWSELKKEVTLAVENELQGSVTEYEFSQEEFRNLQQEFWCKFYACCLQYQEALSHPLALHLNPHTNMVCLLKKGYLSFLIPSSLVDHLYLLPYENLLTEDETTISDDVDIARDVICLIKCLRLIEESVTVDMSVIMEMSCYNLQSPEKAAEQILEDMITIDVENVMEDICSKLQEIRNPIHAIGLLIREMDYETEVEMEKGFNPAQPLNIRMNLTQLYGSNTAGYIVCRGVHKIASTRFLICRDLLILQQLLMRLGDAVIWGTGQLFQAQQDLLHRTAPLLLSYYLIKWGSECLATDVPLDTLESNLQHLSVLELTDSGALMANRFVSSPQTIVELFFQEVARKHIISHLFSQPKAPLSQTGLNWPEMITAITSYLLQLLWPSNPGCLFLECLMGNCQYVQLQDYIQLLHPWCQVNVGSCRFMLGRCYLVTGEGQKALECFCQAASEVGKEEFLDRLIRSEDGEIVSTPRLQYYDKVLRLLDVIGLPELVIQLATSAITEAGDDWKSQATLRTCIFKHHLDLGHNSQAYEALTQIPDSSRQLDCLRQLVVVLCERSQLQDLVEFPYVNLHNEVVGIIESRARAVDLMTHNYYELLYAFHIYRHNYRKAGTVMFEYGMRLGREVRTLRGLEKQGNCYLAALNCLRLIRPEYAWIVQPVSGAVYDRPGASPKRNHDGECTAAPTNRQIEILELEDLEKECSLARIRLTLAQHDPSAVAVAGSSSAEEMVTLLVQAGLFDTAISLCQTFKLPLTPVFEGLAFKCIKLQFGGEAAQAEAWAWLAANQLSSVITTKESSATDEAWRLLSTYLERYKVQNNLYHHCVINKLLSHGVPLPNWLINSYKKVDAAELLRLYLNYDLLEEAVDLVSEYVDAVLGKGHQYFGIEFPLSATAPMVWLPYSSIDQLLQALGENSANSHNIALSQKILDKLEDYQQKVDKATRDLLYRRTL | 44 | 33 |
| Nup85 (endogenous) (natural protein) MEELDGEPTVTLIPGVNSKKNQMYFDWGPGEMLVCETSFNKKEKSEMVPSCPFIYIIRKDVDVYSQILRKLFNESHGIFLGLQRIDEELTGKSRKSQLVRVSKNYRSVIRACMEEMHQVAIAAKDPANGRQFSSQVSILSAMELIWNLCEILFIEVAPAGPLLLHLLDWVRLHVCEVDSLSADVLGSENPSKHDSFWNLVTILVLQGRLDEARQMLSKEADASPASAGICRIMGDLMRTMPILSPGNTQTLTELELKWQHWHEECERYLQDSTFATSPHLESLLKIMLGDEAALLEQKELLSNWYHFLVTRLLYSNPTVKPIDLHYYAQSSLDLFLGGESSPEPLDNILLAAFEFDIHQVIKECSIALSNWWFVAHLTDLLDHCKLLQSHNLYFGSNMREFLLLEYASGLFAHPSLWQLGVDYFDYCPELGRVSLELHIERIPLNTEQKALKVLRICEQRQMTEQVRSICKILAMKAVRNNRLGSALSWSIRAKDAAFATLVSDRFLRDYCERGCFSDLDLIDNLGPAMMLSDRLTFLGKYREFHRMYGEKRFADAASLLLSLMTSRIAPRSFWMTLLTDALPLLEQKQVIFSAEQTYELMRCLEDLTSRRPVHGESDTEQLQDDDIETTKVEMLRLSLARNLARAIIREGSLEGS | 86 | 58 |
